Test results published in patent US6436654.

How the values were obtained:
Assay in all cases: cell-based or functional assay
GAL4/HIF 531-584 (human) = molecular target: GAL4/HIF 531-584 (human)
GAL4/HIF 776-826 (human) = molecular target: GAL4/HIF 776-826 (human)
human HIF-1α (human) = human HIF-1α (human) (UniProt Q16665)
GAL4/Arnt 128-603 = GAL4/Arnt 128-603 (UniProt P04386)
GAL4/Arnt 128-774 = GAL4/Arnt 128-774 (UniProt P04386)
[1] = molecular target: GFP-HIF-1α (Aequeora victoria; human) [GFP: P42212]
GAL4/HIF 71-826 (human) = molecular target: GAL4/HIF 71-826 (human)
GAL4/HIF 1-813 (human) = molecular target: GAL4/HIF 1-813 (human)
GAL4/HIF 1-826 (human) = molecular target: GAL4/HIF 1-826 (human)
GAL4/HIF 526-826 (human) = molecular target: GAL4/HIF 526-826 (human)

Sequence of human HIF-1α (human) (Q16665 whole entry, the tested form may be a part): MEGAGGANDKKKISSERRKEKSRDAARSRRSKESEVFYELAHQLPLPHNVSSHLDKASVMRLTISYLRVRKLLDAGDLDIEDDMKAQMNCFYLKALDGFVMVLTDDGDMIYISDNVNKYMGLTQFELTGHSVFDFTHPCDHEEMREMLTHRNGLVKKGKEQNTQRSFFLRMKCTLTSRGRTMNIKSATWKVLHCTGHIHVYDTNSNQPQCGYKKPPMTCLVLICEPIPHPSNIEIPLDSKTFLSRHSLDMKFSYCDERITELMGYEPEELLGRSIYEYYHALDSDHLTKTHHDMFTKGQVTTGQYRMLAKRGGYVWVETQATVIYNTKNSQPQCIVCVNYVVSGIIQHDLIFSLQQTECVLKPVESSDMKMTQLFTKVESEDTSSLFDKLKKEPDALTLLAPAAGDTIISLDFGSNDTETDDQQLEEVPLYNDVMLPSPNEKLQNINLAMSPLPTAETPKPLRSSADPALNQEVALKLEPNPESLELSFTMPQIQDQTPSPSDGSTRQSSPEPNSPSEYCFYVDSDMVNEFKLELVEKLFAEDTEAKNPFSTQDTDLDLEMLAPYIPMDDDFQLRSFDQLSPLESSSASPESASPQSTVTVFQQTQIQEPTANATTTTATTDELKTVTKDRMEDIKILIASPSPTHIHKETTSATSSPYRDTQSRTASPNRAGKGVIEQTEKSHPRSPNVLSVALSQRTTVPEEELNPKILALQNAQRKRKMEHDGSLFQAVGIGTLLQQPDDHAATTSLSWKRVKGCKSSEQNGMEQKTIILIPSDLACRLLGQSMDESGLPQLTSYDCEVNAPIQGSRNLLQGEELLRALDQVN

Substance: Ref-1 (from UniProt P27695 1-318) (enzyme)
- GAL4-responsive reporter gene activity in COS7 cells, hypoxia, Ref-1 coexpressed with CBP and SRC-1 (GAL4/HIF 531-584 (human)): 12 fold
- GAL4-responsive reporter gene activity in COS7 cells, hypoxia, Ref-1 coexpressed with CBP and SRC-1 (GAL4/HIF 776-826 (human)): 53 fold

Substance: TIF2 (from UniProt Q15596 1-1464)
- pT81/HRE-luc reporter gene activity in COS7 cells coexpressing HIF-1α and Arnt, hypoxia over normoxia (human HIF-1α (human)): 12 fold

Substance: human HIF-1α (from UniProt Q16665 1-826)
- GAL4-responsive reporter gene activity in COS7 cells, normoxia (GAL4/Arnt 128-603): 5 fold
- GAL4-responsive reporter gene activity in COS7 cells, normoxia (GAL4/Arnt 128-774): 4 fold

Substance: CBP (full-length mouse CBP) (from UniProt P45481 1-2441)
- GAL4-responsive reporter gene activity in COS7 cells, hypoxia (GAL4/HIF 531-584 (human)): 11 fold
- HRE-luciferase reporter gene activity in COS7 cells, hypoxia [1]: 3 fold
- HRE-luciferase reporter gene activity in COS7 cells, hypoxia over normoxia [1]: 15 fold
- GAL4-responsive luciferase activity in COS7 cells, hypoxia, against hypoxia without exogenous coactivators (GAL4/HIF 71-826 (human)): 30 fold
- GAL4-responsive reporter gene activity in COS7 cells, hypoxia (GAL4/HIF 1-813 (human)): 14 fold
- GAL4-responsive luciferase reporter gene activity in COS7 cells, hypoxia (GAL4/HIF 1-826 (human)): 19 fold
- GAL4-responsive luciferase reporter gene activity in COS7 cells, normoxia (GAL4/HIF 1-826 (human)): 2 to 3 fold
- GAL4-responsive reporter gene activity in COS7 cells, hypoxia (GAL4/HIF 1-826 (human)): 8 to 10 fold
- GAL4-responsive reporter gene activity in COS7 cells (GAL4/HIF 776-826 (human)): 29 fold
- GAL4-responsive reporter gene activity in COS7 cells (GAL4/HIF 526-826 (human)): 7 to 9 fold
- pT81/HRE-luc reporter gene activity in COS7 cells coexpressing HIF-1α and Arnt, hypoxia (human HIF-1α (human)): 2 to 3 fold
